Laboratory results as given in the Immune Epitope Database (IEDB).
pKd: −log10 of the molar value.

Experiments:
HLA-B*57:01 [1] = assay: IEDB peptide-MHC binding, purified MHC/competitive/radioactivity; filed as Kd, often an IC50 or EC50 that approximates it; ≥ and ≤ were set here for values at or beyond the usual limits of such assays
HLA-A*31:01 [2] = assay: IEDB peptide-MHC binding, purified MHC/competitive/fluorescence; filed as Kd, often an IC50 or EC50 that approximates it; ≥ and ≤ were set here for values at or beyond the usual limits of such assays
HLA-A*03:01 [3] = assay: IEDB peptide-MHC binding, purified MHC/direct/fluorescence; filed as Kd, often an IC50 or EC50 that approximates it; ≥ and ≤ were set here for values at or beyond the usual limits of such assays
HLA-A*11:01 = assay: as above
HLA-B*44:02 = assay: as above
HLA-B*46:01 = assay: as above; settings: source organism: West Nile virus
HLA-A*02:01 = assay: as above
HLA-B*48:01 = assay: as above; settings: source organism: West Nile virus
HLA-B*07:02 = assay: as above
HLA-B*15:01 = assay: as above
HLA-B*57:01 [4] = assay: as above; settings: source organism: West Nile virus
HLA-A*01:01 [5] = assay: as above
HLA-B*27:05 = assay: as above
HLA-B*58:01 = assay: as above
HLA-B*18:01 [6] = assay: as above
HLA-A*01:01 [7] = assay: IEDB peptide-MHC binding, purified MHC/competitive/fluorescence; filed as Kd, often an IC50 or EC50 that approximates it; ≥ and ≤ were set here for values at or beyond the usual limits of such assays; settings: source organism: Xenopus laevis
HLA-A*29:02 = assay: as above
HLA-B*40:01 = assay: IEDB peptide-MHC binding, purified MHC/direct/fluorescence; filed as Kd, often an IC50 or EC50 that approximates it; ≥ and ≤ were set here for values at or beyond the usual limits of such assays
HLA-A*69:01 [8] = assay: as above
HLA-A*02:03 = assay: as above; settings: source organism: Mycobacterium tuberculosis F11
HLA-A*02:11 = assay: as above
HLA-A*69:01 [9] = assay: IEDB peptide-MHC binding, purified MHC/competitive/fluorescence; filed as Kd, often an IC50 or EC50 that approximates it; ≥ and ≤ were set here for values at or beyond the usual limits of such assays; settings: source organism: Orthohantavirus tulaense
HLA-B*51:01 = assay: as above; settings: source organism: Orthohantavirus tulaense
HLA-A*26:01 [10] = assay: as above; settings: source organism: Orthohantavirus tulaense
HLA-B*27:03 = assay: as above; settings: source organism: Orthohantavirus tulaense
HLA-B*57:01 [11] = assay: as above; settings: source organism: Orthohantavirus tulaense
HLA-B*18:01 [12] = assay: as above; settings: source organism: Orthohantavirus tulaense
HLA-A*68:02 = assay: IEDB peptide-MHC binding, purified MHC/direct/fluorescence; filed as Kd, often an IC50 or EC50 that approximates it; ≥ and ≤ were set here for values at or beyond the usual limits of such assays; settings: source organism: Orthohantavirus tulaense
HLA-A*03:01 [13] = assay: IEDB peptide-MHC binding, purified MHC/competitive/fluorescence; filed as Kd, often an IC50 or EC50 that approximates it; ≥ and ≤ were set here for values at or beyond the usual limits of such assays
HLA-B*53:01 = assay: IEDB peptide-MHC binding, purified MHC/competitive/radioactivity; filed as Kd, often an IC50 or EC50 that approximates it; ≥ and ≤ were set here for values at or beyond the usual limits of such assays; settings: source organism: Dengue virus 3 Martinique/1243/1999
HLA-B*15:42 = assay: IEDB peptide-MHC binding, purified MHC/competitive/fluorescence; filed as Kd, often an IC50 or EC50 that approximates it; ≥ and ≤ were set here for values at or beyond the usual limits of such assays; settings: source organism: human gammaherpesvirus 4
HLA-B*83:01 = assay: as above; settings: source organism: human gammaherpesvirus 4
HLA-B*45:06 = assay: as above; settings: source organism: human gammaherpesvirus 4
HLA-A*24:03 = assay: IEDB peptide-MHC binding, purified MHC/direct/fluorescence; filed as Kd, often an IC50 or EC50 that approximates it; ≥ and ≤ were set here for values at or beyond the usual limits of such assays; settings: source organism: Campylobacter jejuni
HLA-B*08:01 = assay: as above; settings: source organism: Campylobacter jejuni
HLA-A*26:01 [14] = assay: as above; settings: source organism: Campylobacter jejuni
HLA-A*31:01 [15] = assay: as above; settings: source organism: Campylobacter jejuni
HLA-A*02:19 = assay: as above
HLA-A*02:12 = assay: as above
HLA-A*02:17 = assay: IEDB peptide-MHC binding, purified MHC/competitive/radioactivity; filed as Kd, often an IC50 or EC50 that approximates it; ≥ and ≤ were set here for values at or beyond the usual limits of such assays; settings: source organism: Dengue virus 1 Singapore/S275/1990
[16] = source organism: Dengue virus 3 Martinique/1243/1999
[17] = source organism: Escherichia coli O157:H7
[18] = source organism: West Nile virus
[19] = source organism: Influenza A virus (A/quail/Hong Kong/FY298/00(H9N2))
[20] = source organism: Orthohantavirus hantanense
[21] = source organism: Influenza A virus (A/swine/Bakum/5/95(H1N1))
[22] = source organism: Bacillus anthracis str. A0488
[23] = source organism: Influenza A virus
[24] = source organism: Escherichia coli
[25] = source organism: Campylobacter jejuni
[26] = source organism: Hantaanvirus CGRn93P8
[27] = source organism: Dengue virus 2 Thailand/16681/84

SSSMRKTDW showed a pKd (HLA-B*57:01 [1]; [16]) of 6.38.

MLRLWWIPY showed a pKd (HLA-A*31:01 [2]; source organism: Escherichia coli HS) of no more than 4.70, a pKd (HLA-A*03:01 [3]; [17]) of 5.00 and a pKd (HLA-A*11:01; [17]) of no more than 4.70.

For FTRYRKEAI, the pKd (HLA-B*44:02; [18]) was no more than 4.70, the pKd (HLA-B*46:01) was no more than 4.70 and the pKd (HLA-A*03:01 [3]; [18]) was no more than 4.70. It also gave a pKd (HLA-A*02:01; [18]) of no more than 4.70, a pKd (HLA-B*48:01) of no more than 4.70 and a pKd (HLA-A*11:01; [18]) of no more than 4.70. It also gave a pKd (HLA-B*07:02; [18]) of no more than 4.70, a pKd (HLA-B*15:01; [18]) of no more than 4.70 and a pKd (HLA-B*57:01 [4]) of no more than 4.70. It also gave a pKd (HLA-A*01:01 [5]; [18]) of no more than 4.70, a pKd (HLA-B*27:05; [18]) of no more than 4.70 and a pKd (HLA-B*58:01; [18]) of no more than 4.70. The pKd (HLA-B*18:01 [6]; [18]) was no more than 4.70.

With NTMTKDAER the pKd (HLA-A*31:01 [2]; source organism: Influenza A virus (A/Fort Monmouth/1/1947-mouse adapted(H1N1))) was 6.97, the pKd (HLA-A*03:01 [3]; [19]) was no more than 4.70 and the pKd (HLA-A*11:01; [19]) was no more than 4.70.

With GSASPTPPY the pKd (HLA-A*01:01 [7]) was 7.37 and the pKd (HLA-A*29:02; source organism: Xenopus laevis) was 8.43.

IEADIEHFL showed a pKd (HLA-B*44:02; [20]) of 5.12, a pKd (HLA-B*40:01; [20]) of 8.92 and a pKd (HLA-B*18:01 [6]; [20]) of 7.23.

With GINDRNFWR the pKd (HLA-A*31:01 [2]; source organism: Influenza A virus (A/swine/Italy/1509-6/97(H1N1))) was 8.50, the pKd (HLA-A*03:01 [3]; [21]) was 5.38 and the pKd (HLA-A*11:01; [21]) was 6.83.

Work on FLFGDDDAL yielded a pKd (HLA-A*69:01 [8]; source organism: Mycobacterium tuberculosis) of 5.68, a pKd (HLA-A*02:03) of 8.70 and a pKd (HLA-A*02:11; source organism: Mycobacterium tuberculosis F11) of 8.52.

With FMFNELLAL the pKd (HLA-A*69:01 [9]) was no more than 4.70, the pKd (HLA-B*51:01) was no more than 4.70 and the pKd (HLA-A*26:01 [10]) was no more than 4.70. It also gave a pKd (HLA-B*27:03) of no more than 4.70, a pKd (HLA-B*57:01 [11]) of no more than 4.70 and a pKd (HLA-B*18:01 [12]) of no more than 4.70. The pKd (HLA-A*68:02) was no more than 4.70, the pKd (HLA-A*03:01 [3]; source organism: Orthohantavirus tulaense) was no more than 4.70 and the pKd (HLA-A*02:01; source organism: Orthohantavirus puumalaense) was 9.70.

KLSSMAAER gave a pKd (HLA-A*03:01 [13]; [22]) of 7.06 and a pKd (HLA-A*31:01 [2]; [22]) of 7.80.

For GIWHGPYWH, the pKd (HLA-A*29:02; source organism: Clostridium botulinum E3 str. Alaska E43) was 6.64.

LIAPRGYFK showed a pKd (HLA-A*03:01 [13]; [23]) of 7.97 and a pKd (HLA-A*31:01 [2]; [23]) of 7.47.

For RVDGLELKK, the pKd (HLA-A*31:01 [2]; source organism: Yellow fever virus) was no more than 4.70 and the pKd (HLA-A*11:01; source organism: Yellow fever virus 17D) was 7.73.

ALRGVAVGR was tested, and the pKd (HLA-A*03:01 [13]; [24]) was 8.01 and the pKd (HLA-A*31:01 [2]; [24]) was 8.42.

TALFSGVSW showed a pKd (HLA-B*53:01) of 7.30 and a pKd (HLA-B*57:01 [1]; [16]) of 9.23.

For RPRPRTPEW, the pKd (HLA-B*15:42) was no more than 5.30, the pKd (HLA-B*83:01) was 6.37 and the pKd (HLA-B*45:06) was no more than 5.30.

In the case of VGGDIRTLY, the pKd (HLA-A*29:02; source organism: Coxiella burnetii RSA 331) was 7.16.

STSLLFLNDM showed a pKd (HLA-B*57:01 [1]; source organism: Dengue virus 4 Philippines/H241/1956) of 7.06.

In the case of KRVQEVKGY, the pKd (HLA-B*48:01) was no more than 4.70 and the pKd (HLA-B*27:05; [18]) was 6.11.

VFKVKLHEI showed a pKd (HLA-B*44:02; [25]) of no more than 4.70, a pKd (HLA-A*69:01 [8]; [25]) of no more than 4.70 and a pKd (HLA-A*24:03) of 7.03. It also gave a pKd (HLA-A*03:01 [3]; [25]) of no more than 4.70, a pKd (HLA-A*02:01; [25]) of 4.73 and a pKd (HLA-B*08:01) of 6.41. For the same sequence, the pKd (HLA-A*11:01; [25]) was no more than 4.70, the pKd (HLA-A*26:01 [14]) was no more than 4.70 and the pKd (HLA-B*07:02; [25]) was no more than 4.70. For the same sequence, the pKd (HLA-B*15:01; [25]) was no more than 4.70, the pKd (HLA-A*31:01 [15]) was no more than 4.70 and the pKd (HLA-A*01:01 [5]; [25]) was no more than 4.70. It also gave a pKd (HLA-B*40:01; [25]) of no more than 4.70, a pKd (HLA-B*27:05; [25]) of no more than 4.70 and a pKd (HLA-B*58:01; [25]) of no more than 4.70.

Work on QMISPVMSV yielded a pKd (HLA-A*02:19; [26]) of 8.15, a pKd (HLA-A*69:01 [8]; [20]) of 8.92 and a pKd (HLA-A*02:01; [20]) of no less than 9.00. It also gave a pKd (HLA-A*02:11; [26]) of no less than 9.00 and a pKd (HLA-A*02:12; [26]) of 8.52.

In the case of KTTLSLDYAW, the pKd (HLA-B*57:01 [1]; source organism: Dengue virus 1 Brazil/97-11/1997) was 9.07.

IVNMGNPDY gave a pKd (HLA-A*29:02; source organism: Encephalitozoon cuniculi GB-M1) of 7.26.

Work on KMDIGVPLL yielded a pKd (HLA-A*02:19; [27]) of 7.80, a pKd (HLA-A*69:01 [8]; source organism: Dengue virus 1 Singapore/S275/1990) of no more than 4.70 and a pKd (HLA-A*02:11; [27]) of no less than 9.00. The pKd (HLA-A*02:12; [27]) was 8.40 and the pKd (HLA-A*02:17) was 5.90.
